Laboratory results published in US6268347A, “Prosaposin-derived peptides” (Regents of the University of CA, priority 1999, dated 2001).
Where a SMILES comes first, the peptide text is derived from it. [ ]: non-standard residue; d: D form.

B1: Prosaposin: 517 amino acid protein, precursor of four sphingolipid activator proteins (saposins A, B, C, D) (protein, UniProt P07602 1-524, looked up)
chain: MYALFLLASLLGAALAGPVLGLKECTRGSAVWCQNVKTASDCGAVKHCLQTVWNKPTVKSLPCDICKDVVTAAGDMLKDNATEEEILVYLEKTCDWLPKPNMSASCKEIVDSYLPVILDIIKGEMSRPGEVCSALNLCESLQKHLAELNHQKQLESNKIPELDMTEVVAPFMANIPLLLYPQDGPRSKPQPKDNGDVCQDCIQMVTDIQTAVRTNSTFVQALVEHVKEECDRLGPGMADICKNYISQYSEIAIQMMMHMQPKEICALVGFCDEVKEMPMQTLVPAKVASKNVIPALELVEPIKKHEVPAKSDVYCEVCEFLVKEVTKLIDNNKTEKEILDAFDKMCSKLPKSLSEECQEVVDTYGSSILSILLEEVSPELVCSMLHLCSGTRLPALTVHVTQPKDGGFCEVCKKLVGYLDRNLEKNSTKQEILAALEKGCSFLPDPYQKQCDQFVAEYEPVLIEILVEVMDPSFVCLKIGACPSAHKPLLGTEKCIWGPSYWCQNTETAAQCNAVEHCKRHVWN
modifications: full-length

Tests used:
Chung model rats = assay: Tactile allodynia (von Frey 50% paw withdrawal threshold) in Chung model rats; type: in vivo, rat; details: any concentration tested, intrathecal
Experimental: The surgical procedure previously described by Kim and Chung, supra, 1992, was performed on male Sprague-Dawley rats weighing 120 to 150 grams to induce an allodynic state. Briefly, the rats were anesthetized with halothane; subsequently, the left L-5 and L-6 spinal nerves were isolated adjacent to the vertebral column and ligated with 6.0 silk suture distal to the dorsal root ganglion. After a ten to fourteen day post operative recovery period, a spinal catheter was introduced. Five days following the second surgery, intrathecal drug administration was accomplished using a gear driven micro-injection syringe connected to a spinal catheter inserted through the foramen magnum. Prior to testing, the rats were placed in clear plastic wire meshed cages and allowed to accommodate.
To assess the 50% mechanical threshold for paw withdrawal, a von Frey hair was applied to the hind foot avoiding the foot pad. Each of the von Frey hairs, which are calibrated to bend at increasing log forces, were pressed perpendicularly to the foot with sufficient force to cause slight bending for a duration of approximately six to eight seconds. A positive response was noted if the foot was sharply withdrawn. […] The X-axis indicates the time after the injection at which point the hypersensitivity to pressure on the foot pad was measured.

neurite outgrowth = details: cited from earlier work
neuroblastoma cells = details: cited from earlier work
[1] = system: choline acetyltransferase activity; details: cited from earlier work

Molecule | side effects such as sedation (Chung model rats) | neurite outgrowth (neurite outgrowth) | cell death in neuroblastoma cells (neuroblastoma cells) | choline acetyltransferase activity [1]
CC[C@H](C)[C@H](NC(=O)[C@H](CCC(=O)O)NC(=O)[C@H](CCCCN)NC(=O)[C@H](CCC(=O)O)NC(=O)[C@@H](NC(=O)[C@H](CCCCN)NC(=O)[C@H](CC(N)=O)NC(=O)[C@H](CC(N)=O)NC(=O)[C@H](CC(=O)O)NC(=O)[C@@H](NC(=O)[C@H](CC(C)C)NC(=O)[C@H](CCCCN)NC(=O)[C@@H](NC(=O)[C@@H](NC(=O)[C@H](CCC(=O)O)NC(=O)[C@H](CCCCN)NC(=O)[C@@H](NC(=O)[C@H](CC(C)C)NC(=O)[C@H](Cc1ccccc1)NC(=O)[C@H](CCC(=O)O)NC(=O)[C@@H](N)CS)C(C)C)C(C)C)[C@@H](C)O)[C@@H](C)CC)[C@@H](C)O)C(=O)N[C@@H](CC(C)C)C(=O)O [SEQ ID NO: 1] (H-CEFLVKEVTKLIDNNKTEKEIL-OH) | No significant side effects such as sedation were observed | – | – | –
CC[C@H](C)[C@H](NC(=O)[C@H](CCC(=O)O)NC(=O)[C@H](CCC(=O)O)NC(=O)[C@@H](NC(=O)[C@H](C)NC(=O)[C@H](CC(N)=O)NC(=O)[C@H](CC(N)=O)NC(=O)[C@H](CC(=O)O)NC(=O)[C@@H](NC(=O)[C@H](CC(C)C)NC(=O)[C@@H](C)NC(=O)[C@@H](N)[C@@H](C)O)[C@@H](C)CC)[C@@H](C)O)C(=O)N[C@@H](CC(C)C)C(=O)N[C@@H](Cc1ccc(O)cc1)C(=O)O [SEQ ID NO: 2, TXLIDNNATEEILY] (H-T[dA]LIDNNATEEILY-OH) | No side effects were observed | – | – | –
B1 | – | stimulates motor neurite outgrowth in vitro and in vivo | prevents cell death | increases choline acetyltransferase activity
